Data reported in CN111378040A (UNIV SHENZHEN, dated 2020).

Columns and labels:
[1] = molecular target: T1, ROR2膜蛋白 (UniProt Q01974 34-943, limits assumed); experiment: flow cytometry on T47D cells (ROR2 positive) against 231 cells (ROR2 negative), 10ug/ml
T1 construct: whole, on cells; Endogenous ROR2 of T47D cells and of cells from human patients; also called ROR2 on T47D cells; ROR2 on patient blood cancer cells and lymphoma PDX tumour cells

[2] = molecular target: T2, 内源性的ROR2 (293T细胞) (UniProt Q01974 34-943); experiment: immunoprecipitation from 293T cell lysate, blot with Santa Cruz ROR2 antibody sc-374174
T2 construct: Whole endogenous protein in cell lysate, used for immunoprecipitation; also called endogenous ROR2 protein of ROR2-positive 293T cells
T2 sequence (Q01974 34-943 limits assumed): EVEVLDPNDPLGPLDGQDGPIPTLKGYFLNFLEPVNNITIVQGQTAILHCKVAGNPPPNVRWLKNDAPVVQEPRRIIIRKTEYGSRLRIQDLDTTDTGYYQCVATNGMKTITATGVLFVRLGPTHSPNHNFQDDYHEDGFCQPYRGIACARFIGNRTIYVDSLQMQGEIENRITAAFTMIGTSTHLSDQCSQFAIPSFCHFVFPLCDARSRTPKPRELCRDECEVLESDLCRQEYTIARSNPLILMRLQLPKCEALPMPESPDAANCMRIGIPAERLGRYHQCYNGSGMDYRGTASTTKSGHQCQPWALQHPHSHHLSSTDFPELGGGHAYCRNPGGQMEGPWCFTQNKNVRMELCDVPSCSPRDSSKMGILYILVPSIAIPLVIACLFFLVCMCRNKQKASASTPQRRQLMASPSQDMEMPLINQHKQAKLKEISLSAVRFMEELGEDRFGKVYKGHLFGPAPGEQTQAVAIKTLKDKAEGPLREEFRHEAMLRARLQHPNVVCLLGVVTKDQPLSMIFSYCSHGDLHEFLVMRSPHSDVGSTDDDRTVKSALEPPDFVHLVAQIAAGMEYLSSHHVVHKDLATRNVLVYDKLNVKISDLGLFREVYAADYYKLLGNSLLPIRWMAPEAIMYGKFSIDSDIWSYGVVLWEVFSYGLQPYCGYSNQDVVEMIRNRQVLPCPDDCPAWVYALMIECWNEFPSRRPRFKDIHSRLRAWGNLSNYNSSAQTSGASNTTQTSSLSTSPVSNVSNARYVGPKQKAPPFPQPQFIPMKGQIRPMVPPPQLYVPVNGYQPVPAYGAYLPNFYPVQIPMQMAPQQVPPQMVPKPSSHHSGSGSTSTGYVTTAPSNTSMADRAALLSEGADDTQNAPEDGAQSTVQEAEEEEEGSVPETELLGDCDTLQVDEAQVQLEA

[3] = molecular target: T3, 带有His标签的人源的ROR2胞外端 (human, UniProt Q01974 34-403); experiment: immunoblot, lysate of 293T-ROR2-KO cells transfected with His-tagged human ROR2ex, 5ug/ml
T3 construct: extracellular domain; Denatured cell lysate in an immunoblot; it is put last only for want of a statement; also called human ROR2ex; humanROR2ex; not shown: His tag
T3 sequence (Q01974 34-403): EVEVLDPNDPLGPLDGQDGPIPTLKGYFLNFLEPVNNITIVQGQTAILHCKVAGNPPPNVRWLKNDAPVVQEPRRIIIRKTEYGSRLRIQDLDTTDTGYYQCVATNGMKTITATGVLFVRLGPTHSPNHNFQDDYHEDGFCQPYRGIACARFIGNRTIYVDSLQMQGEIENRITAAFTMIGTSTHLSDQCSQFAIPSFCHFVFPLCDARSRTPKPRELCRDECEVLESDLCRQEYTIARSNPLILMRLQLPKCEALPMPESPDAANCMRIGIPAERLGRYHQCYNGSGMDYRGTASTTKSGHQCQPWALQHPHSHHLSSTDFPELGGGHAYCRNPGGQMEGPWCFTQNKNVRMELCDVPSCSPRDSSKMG

Measured: binding result

T1 sequence (Q01974 34-943 limits assumed): as the sequence (Q01974 34-943 limits assumed) above

B1: A12嵌合抗体 (antibody, human IgG1, kappa, V domains shown)
VH: QVQLQQSGPELVKPGASVRMSCKAAGYTITSYLMHWVKQRPGQDLEWIGYINPYNDGTKYNEKFKDKATLTSDKSSSTAYMELSSLTSEDSAVYYCARSDVYYGVRFAYWGQGTLVTVSA
VL: DIVLTQSPAIMSASPGEKVTMTCSASSSVSYMHWYQQKSGTSPKRWIYDTSKLASGVPARFSGSGSGTSYSLTISSMEAEDAAIYYCQQWSSNPPTFGAGTKLELKR
notes: Chimeric antibody expressed in 293F cells and purified on Protein A; also called A12抗体; ROR2-A12
binds: all assays above

B2: B30嵌合抗体 (antibody, human IgG1, kappa, V domains shown)
VH: QVQLQQSGPELVKPGASVRMSCKAAGYTFTSYLIHWVKQRPGQDLEWIGYINPYNDGTKYNEKFKDKATLTSDKSSSTAYMELSSLTSEDSAVYYCARSDVYYGVRFAYWGQGTLVTVSA
VL: DIVLTQSPVIMSASPGEKVTMTCSASSSISYMYWYQQKPGSSPRLLIYDTSILASGVPVRFSGSGSGTSYSLTISRMEAEDAATYYCQQWSSYPFTFGSGTKLEIKR
notes: Chimeric antibody expressed in 293F cells and purified on Protein A; also called B30抗体; ROR2-B30
binds: all assays above

B3: B22嵌合抗体 (antibody, human IgG1, kappa, V domains shown)
VH: QVQLQQPGAALVKPGASVKLSCKASGYTFTNYWIQWMKQRPGQGLEWIGEINPSNGRTDYNEKFKNRATLTVDNSSTTAYMQLSSLTSEDSAVYYCANYRPGYWGQGTSVTVSS
VL: DIVMTQSQKFMSTSVGDRVSVTCKASQNVGTNVAWFQQKPGQSPKPLIYLASYRYSGVPDRFTGSGSGTDFTLTISNVQSEDLAEYFCQQYNSYPLTFGGGTNLEIKR
notes: Chimeric antibody expressed in 293F cells and purified on Protein A; also called B22抗体; SA120-2
binds: all assays above
